Measured values: article PMC8765073 (mAbs, 2022)
Where two headings read alike, the source gives them in different places.

B1: Y1.10 (scFv, V domains shown)
VH: QVQLQQSGAEVKKPGSSVKVSCKASGGTFGNWTISWVRQAPGQGLEWMGGIGPRQGEATYAQKFQGRVTITTDESTSTAYMELSSLRSEDTAVYYCARETWYTSGGMDVWGQGTTVTVSS
VL: SYELTQPPSVSVAPGKTARITCGGNNIGRKSVHWYQQKPGQAPVLVVYDDSDRPSGIPERFSGSNSGNTATLTISRVEAGDEADYYCQVYDLWSSDYVFGTGTKVEIK
B2: D27LE, scFv (scFv, V domains shown)
VH: QVQLQQSGAEVKKPGSSVKVSCKASGGTFGNWSISWVRQAPGQGLEWMGGIDPSRGEATYAQKFQGRVTITTDESTSTAYMELSSLRSEDTAVYYCARETWYTSGGMDVWGQGTTVTVSS
VL: SYELTQPPSVSVAPGKTARITCGGNNIGRKSVHWYQQKPGQAPVLVVYDDSDRPSGIPERFSGSNSGNTATLTISRVEAGDEADYYCQVYDLWSSDYVFGTGTKVEIK
B3: D27LEY (antibody, V domains shown)
VH: QVQLQQSGAEVKKPGSSVKVSCKASGGTFGNWSISWVRQAPGQGLEWMGGIAPGRGEATYAQKFQGRVTITTDESTSTAYMELSSLRSEDTAVYYCARETWYTSGGMDVWGQGTTVTVSS
VL: SYELTQPPSVSVAPGKTARITCGGNNIGRKSVHWYQQKPGQAPVLVVYDDSDRPSGIPERFSGSNSGNTATLTISRVEAGDEADYYCQVYDLWSSDYVFGTGTKVEIK
B4: Y7.10 (scFv, V domains shown)
VH: QVQLQQSGAEVKKPGSSVKVSCKASGGTFGNWTISWVRQAPGQGLEWMGGIIPSRGEATYAQKFQGRVTITTDESTSTAYMELSSLRSEDTAVYYCARETWYTSGGMDVWGQGTTVTVSS
VL: SYELTQPPSVSVAPGKTARITCGGNNIGRKSVHWYQQKPGQAPVLVVYDDSDRPSGIPERFSGSNSGNTATLTISRVEAGDEADYYCQVYDLWSSDYVFGTGTKVEIK
B5: Y4.1 (scFv, V domains shown)
VH: QVQLQQSGAEVKKPGSSVKVSCKASGGTFGNWTISWVRQAPGQGLEWMGGIAPTRGEATYAQKFQGRVTITTDESTSTAYMELSSLRSEDTAVYYCARETWYTSGGMDVWGQGTTVTVSS
VL: SYELTQPPSVSVAPGKTARITCGGNNIGRKSVHWYQQKPGQAPVLVVYDDSDRPSGIPERFSGSNSGNTATLTISRVEAGDEADYYCQVYDLWSSDYVFGTGTKVEIK
B6: Y4.2 (D27LEY), scFv (scFv, V domains shown)
VH: QVQLQQSGAEVKKPGSSVKVSCKASGGTFGNWSISWVRQAPGQGLEWMGGIAPGRGEATYAQKFQGRVTITTDESTSTAYMELSSLRSEDTAVYYCARETWYTSGGMDVWGQGTTVTVSS
VL: SYELTQPPSVSVAPGKTARITCGGNNIGRKSVHWYQQKPGQAPVLVVYDDSDRPSGIPERFSGSNSGNTATLTISRVEAGDEADYYCQVYDLWSSDYVFGTGTKVEIK
B7: Y6.8 (scFv, V domains shown)
VH: QVQLQQSGAEVKKPGSSVKVSCKASGGTFGNWTISWVRQAPGQGLEWMGGIAPDRGEATYAQKFQGRVTITTDESTSTAYMELSSLRSEDTAVYYCARETWYTSGGMDVWGQGTTVTVSS
VL: SYELTQPPSVSVAPGKTARITCGGNNIGRKSVHWYQQKPGQAPVLVVYDDSDRPSGIPERFSGSNSGNTATLTISRVEAGDEADYYCQVYDLWSSDYVFGTGTKVEIK
B8: Y9.6 (scFv, V domains shown)
VH: QVQLQQSGAEVKKPGSSVKVSCKASGGTFGNWTISWVRQAPGQGLEWMGGIIPTIGEATYAQKFQGRVTITTDESTSTAYMELSSLRSEDTAVYYCARETWYTSGGMDVWGQGTTVTVSS
VL: SYELTQPPSVSVAPGKTARITCGGNNIGRKSVHWYQQKPGQAPVLVVYDDSDRPSGIPERFSGSNSGNTATLTISRVEAGDEADYYCQVYDLWSSDYVFGTGTKVEIK
B9: Y9.7 (scFv, V domains shown)
VH: QVQLQQSGAEVKKPGSSVKVSCKASGGTFGNWSISWVRQAPGQGLEWMGGINPSIGEATYAQKFQGRVTITTDESTSTAYMELSSLRSEDTAVYYCARETWYTSGGMDVWGQGTTVTVSS
VL: SYELTQPPSVSVAPGKTARITCGGNNIGRKSVHWYQQKPGQAPVLVVYDDSDRPSGIPERFSGSNSGNTATLTISRVEAGDEADYYCQVYDLWSSDYVFGTGTKVEIK
B10: Y2.1 (scFv, V domains shown)
VH: QVQLQQSGAEVKKPGSSVKVSCKASGGTFGNWSISWVRQAPGQGLEWMGGIVPRDGEATYAQKFQGRVTITTDESTSTAYMELSSLRSEDTAVYYCARETWYTSGGMDVWGQGTTVTVSS
VL: SYELTQPPSVSVAPGKTARITCGGNNIGRKSVHWYQQKPGQAPVLVVYDDSDRPSGIPERFSGSNSGNTATLTISRVEAGDEADYYCQVYDLWSSDYVFGTGTKVEIK
B11: Y8.10 (scFv, V domains shown)
VH: QVQLQQSGAEVKKPGSSVKVSCKASGGTFGNWSISWVRQAPGQGLEWMGGIAPGQGEATYAQKFQGRVTITTDESTSTAYMELSSLRSEDTAVYYCARETWYTSGGMDVWGQGTTVTVSS
VL: SYELTQPPSVSVAPGKTARITCGGNNIGRKSVHWYQQKPGQAPVLVVYDDSDRPSGIPERFSGSNSGNTATLTISRVEAGDEADYYCQVYDLWSSDYVFGTGTKVEIK
B12: D27LE (antibody, V domains shown)
VH: QVQLQQSGAEVKKPGSSVKVSCKASGGTFGNWSISWVRQAPGQGLEWMGGIDPSRGEATYAQKFQGRVTITTDESTSTAYMELSSLRSEDTAVYYCARETWYTSGGMDVWGQGTTVTVSS
VL: SYELTQPPSVSVAPGKTARITCGGNNIGRKSVHWYQQKPGQAPVLVVYDDSDRPSGIPERFSGSNSGNTATLTISRVEAGDEADYYCQVYDLWSSDYVFGTGTKVEIK

How the values were obtained:
Assay in all cases: BLI
N501Y mutant RBD [1] = target: T1, N501Y mutant RBD (SARS-CoV-2 Alpha (B.1.1.7), RBD N501Y, N501Y)
N501Y mutant RBD [2] = target: T1, N501Y mutant RBD; remark: listed apart in the source
RBD of the Delta variant = RBD of the Delta variant (SARS-CoV-2, Delta (B.1.617.2), L452R | T478K)

Binder | Kd (N501Y mutant RBD [1]) | Kd (N501Y mutant RBD [2]) | Kd (RBD of the Delta variant)
B1 | 842 nM |  | 
B2 | 276 nM |  | 
B3 |  | < 0.001 nM | 0.32 nM
B4 | 41.2 nM |  | 
B5 | 102 nM |  | 
B6 | 9.4 nM | 4.87 nM | 
B7 | 93.5 nM |  | 
B8 | 263 nM |  | 
B9 | 79.2 nM |  | 
B10 | 30.8 nM |  | 
B11 | 21.3 nM |  | 
B12 |  | 0.54 nM | 
